Changes are numbered by the printed parent chain. Names may count otherwise.

This is an account of results in patent US20170190775A1 (published 2017).

Experiment [1] deals with T1, cynomolgus TREM-1 (cTREM-1) protein (cynomolgus monkey).
T1 construct: also called cyno TREM-1
T1 chain: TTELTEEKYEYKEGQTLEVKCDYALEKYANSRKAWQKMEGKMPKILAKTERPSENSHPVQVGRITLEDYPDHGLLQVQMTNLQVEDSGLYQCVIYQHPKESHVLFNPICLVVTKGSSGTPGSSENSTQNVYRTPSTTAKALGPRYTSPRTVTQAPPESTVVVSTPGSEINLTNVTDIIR
Description: SPR, mAb captured by anti-Fc, cTREM-1 as analyte. On the procedure: Binding studies were performed on a ProteOn Analyzer (BioRad) that measures molecular interactions in real time through surface plasmon resonance. Experiments were run at 25° C. and the samples were stored at 15° C. in the sample compartment. The signal (RU, response units) reported by the ProteOn is directly correlated to the mass on the individual sensor chip surfaces in six parallel flow cells. Anti-human Fc monoclonal or anti-murine Fc polyclonal antibody from Biacore human or mouse Fc capture kits were immobilized in horizontal direction onto flow cells of a GLM sensor chip according to the manufacturer's instructions. The final immobilization level of capture antibody was approximately 2600-6000 RU in different experiments. […] Binding of hTREM-1 or cTREM-1 proteins was conducted by injecting analyte (antigen) over all flow cells in horizontal direction to allow for comparative analyses of binding to different captured anti-TREM-1 antibodies relative to binding to the reference interspot. hTREM-1 or cTREM-1 proteins was diluted serially 1:3 to 1.2-100 nM or into running buffer, injected at 100 μl/min for 250 s and allowed to dissociate for 600s. The GLM surface was regenerated after each injection cycle of analyte via two 18 s injections of 10 mM Glycine, pH 1.7 and 50 mM NaOH at 100 μl/min. This regeneration step removed the anti-TREM-1 antibody and any bound TREM-1 protein from the immobilized capture antibody surface, and allowed for the subsequent binding of the next interaction sample pair.
In general terms: In SPR one partner is held on a chip, and binding of the other changes the refractive index at the surface.

Experiment [2] deals with T2, cTREM-1 construct, residues M1-R180 of SEQ ID NO: 12 with six histidine residues at the C-terminus (cynomolgus monkey).
T2 chain: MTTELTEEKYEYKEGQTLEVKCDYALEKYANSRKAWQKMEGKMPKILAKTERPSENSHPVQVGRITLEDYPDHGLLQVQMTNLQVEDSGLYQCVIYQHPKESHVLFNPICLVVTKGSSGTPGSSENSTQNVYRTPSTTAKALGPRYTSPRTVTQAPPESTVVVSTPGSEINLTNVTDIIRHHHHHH
Description: HX-MS.
Description: Non-deuterated controls were prepared by diluting into protiated hepes buffer. The hydrogen exchange experiments were performed on a waters HDX nanoAcquity ultra-high performance liquid chromatography (UPLC) system (Waters Corporation, Milford, Mass., USA) which included the HD-x PAL auto sampler (LEAP Technologies Inc., Carrboro, N.C., USA) for automated sample preparation. The LC tubing, pre- and analytical columns and switching valves were located in a chamber cooled to 0.3° C. The trypsin digestion column was stored at 15° C. Hydrogen exchange reactions were performed at 20° C. Mass analysis was performed online using a Waters SYNAPT G2 HDMS mass spectrometer.
The mass spectrometer was operated in positive ion mode with ion mobility separation enabled. […] Deuterated samples were analysed using the 6 V low energy trap collision offset only.
The MS^E-data was analysed using Waters ProteinLynx Global Server 2.5 and peptides of hTREM-1 were identified that covered 80% of the protein sequence (Table 3) and peptides of cTREM-1 were identified that covered 100% of the protein sequence (Table 4). The HX-MS data files were analysed using Waters DynamX 1.0 that automatically applies lock-mass correction and determines the degree of deuterium incorporation in each peptide. […]

Experiment [3] addresses T1, cynomolgus TREM-1 (cTREM-1) protein. Description: SPR, mAb captured by anti-Fc, cTREM-1 as analyte (Example 11). On the procedure:
Binding studies were performed on a ProteOn Analyzer (BioRad) that measures molecular interactions in real time through surface plasmon resonance. Experiments were run at 25° C. and the samples were stored at 15° C. in the sample compartment. The signal (RU, response units) reported by the ProteOn is directly correlated to the mass on the individual sensor chip surfaces in six parallel flow cells.
Anti-human Fc monoclonal or anti-murine Fc polyclonal antibody from Biacore human or mouse Fc capture kits were immobilized in horizontal direction onto flow cells of a GLM sensor chip according to the manufacturer's instructions. The final immobilization level of capture antibody was approximately 2600-6000 RU in different experiments. […] This regeneration step removed the anti-TREM-1 antibody and any bound TREM-1 protein from the immobilized capture antibody surface, and allowed for the subsequent binding of the next interaction sample pair.

The target of experiment [4] is T3, full length cynomolgus monkey (c)TREM-1 on cells (cynomolgus monkey).
T3 construct: also called cynoTREM-1; cTREM-1 reporter cell
T3 chain: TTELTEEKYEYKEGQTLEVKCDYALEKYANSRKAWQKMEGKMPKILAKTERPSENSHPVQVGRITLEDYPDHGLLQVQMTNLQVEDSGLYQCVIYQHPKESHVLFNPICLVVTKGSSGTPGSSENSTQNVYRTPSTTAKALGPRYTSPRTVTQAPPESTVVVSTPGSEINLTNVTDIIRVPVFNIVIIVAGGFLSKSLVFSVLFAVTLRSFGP
The experiment is described as follows: binding to cynomolgus monkey PBMCs, FIG. 6A.

Experiment [5] has as its target T3, full length cynomolgus monkey (c)TREM-1 …. Description: binding to cynomolgus monkey PBMCs, FIG. 6B.

B1: mAb 0122 (antibody, human IgG4 S228P, kappa, V domains shown)
VH: EVQLVESGGGLVQPGGSLKLSCAASGFTFSTYAMHWVRQASGKGLEWVGRIRTKSSNYATYYAASVKGRFTISRDDSKNTAYLQMNSLKTEDTAVYYCTRDMGQRRQFAYWGQGTLVTVSS
VL: DIVLTQSPDSLAVSLGERATINCRASESVDTFDYSFLHWYQQKPGQPPKLLIYRASNLESGVPDRFSGSGSGTDFTLTISSLQAEDVAVYYCQQSNEDPYTFGQGTKLEIKR
notes: Second humanised TREM-1 antibody; also called 14F113/14F69 hz variant LC M4L
Regarding B1, in experiment [1], binding was characterised by a dissociation constant (Kd) of 0.97 nM.

B2: mAb 0170 (antibody, human IgG4 S228P, kappa, V domains shown)
VH: B1 VH with Q104I
VL: B1 VL
notes: Final humanised antibody from hybridoma 14F113 with LC M4L back-mutation and HC CDR3 Q98I (Kabat); also called 14F113/14F69 hz variant LC Q98I
Turning to B2, the Kd (usually the equilibrium constant for the complex coming apart) in experiment [1] was 3.6 nM; in experiment [3], 3 nM. The binding result in experiment [2] was “binds”.

B3: mAb 0124 (antibody, V domains shown)
VH: B1 VH
VL: DIVMTQSPDSLAVSLGERATINCRASESVDTFDYSFLHWYQQKPGQPPKLLIYRASNLESGVPDRFSGSGSRTDFTLTISSLQAEDVAVYYCQQSNEDPYTFGQGTKLEIK
notes: Recombinant; LC G68R (Kabat) in CDR grafted 14F113; also called 14F113/14F69 hz variant LC G68R; 14F113 hz variant LC G68R
B3 had a Kd in experiment [1] of 1.1 nM.

B4: mAb 0048 (antibody, V domains shown)
VH: EVQLVESGGGLVQPKGSLKLSCAASGFTFNTYAMHWVRQAPGKGLEWVARIRTKSNNYATYYVDSVKDRITISRDDSQSMLYLQMNNLKTEDTAMYYCVRDMGIRRQFAYWGQGTLVTVSA
VL: DIVLTQSPASLAVSLGQRATISCRASESVDSFGISFMHWYQQSPGQPPKLLIYRASNLESGIPARFSGSGSRTDFTLTINPVEADDVATYYCQQSNEDPYTFGGGTKLEIKR
notes: also called 14F11A1B1; 14F11
On to B4, for which, in experiment [4], the binding result is “binds”. Besides, in experiment [1], the affinity, expressed as Kd, was 1.2 nM.

B5: mAb 0067 (antibody, V domains shown)
VH: B4 VH
VL: B4 VL
notes: also called 14F11A1B1 (recombinant)
B5 registered a Kd in experiment [1] of 4.7 nM.

B6: mAb 0068 (antibody, V domains shown)
VH: B4 VH
VL: B4 VL
notes: Recombinant; also called 14F128/14F11 (recombinant)
As for B6, the Kd in experiment [1] came to 12 nM.

B7: mAb 0059 (antibody, IgG1, V domains shown)
VH: B4 VH with A23G, G26D, K43M, G44A, N56S, V63A, I70F, S79N, I104Q
VL: B4 VL with S31T, G33D, I34Y, M37L, S43K, K111E
notes: Recombinant; also called 14F113/14F69; 14F113A1B1C1 (recombinant)
In experiment [1], B7 returned a Kd of 0.67 nM.

B8: mAb 0054 (antibody, V domains shown)
VH: B4 VH
VL: B4 VL
notes: Hybridoma antibody 14F128A1; also called 14F128A1; 14F128
As to B8, the binding result in experiment [4] is “binds”.

B9: mAb 0044 (antibody, IgG2a, V domains shown)
VH: B4 VH with V5E, A23G, G26D, K43M, G44A, N56S, V63A, I70F, S79N, I104Q
VL: B4 VL with S31T, G33D, I34Y, M37L, S43K, K111E
notes: Hybridoma antibody; also called 14F69A1; 14F69
As to B9, the binding result in experiment [5] is on record as “binds”.
